# According to patent publication EP3048116A1 (International-Drug-Development-Biotech, dated 2016):
# Target: T1, Purified human sDR5 (human, UniProt O14763 56-182, limits assumed)
# T1 construct: Analyte in the Biacore assay; only called 'purified human sDR5'
# Assay: SPR (Biacore), MAb captured on immobilised GAH, sDR5 injected at 40 nM to 2.5 nM
row,Kd,Binder
1,0.426 nM,"Hz033-Mut7 (antibody, human IgG1, kappa, also called Hz033 Mut7 (K326A E333A P396L)) heavy: EVQLQQSGAEVVKPGASVKLSCKASGFNIKDTFIHWVKQAPGQGLEWIGRIDPANGNTKYDPKFQGKATITTDTSSNTAYMELSSLRSEDTAVYYCVRGLYTYYFDYWGQGTLVTVSSASTKGPSVFPLAPSSKSTSGGTAALGCLVKDYFPEPVTVSWNSGALTSGVHTFPAVLQSSGLYSLSSVVTVPSSSLGTQTYICNVNHKPSNTKVDKKVEPKSCDKTHTCPPCPAPELLGGPSVFLFPPKPKDTLMISRTPEVTCVVVDVSHEDPEVKFNWYVDGVEVHNAKTKPREEQYNSTYRVVSVLTVLHQDWLNGKEYKCKVSNAALPAPIAKTISKAKGQPREPQVYTLPPSRDELTKNQVSLTCLVKGFYPSDIAVEWESNGQPENNYKTTPLVLDSDGSFFLYSKLTVDKSRWQQGNVFSCSVMHEALHNHYTQKSLSLSPGK light: not shown"
2,0.464 nM,"Hz033-Mut11 (antibody, human IgG1, kappa, also called Hz033 Mut11 (F243L R292P Y300L V305L K326A E333A P396L)) heavy: EVQLQQSGAEVVKPGASVKLSCKASGFNIKDTFIHWVKQAPGQGLEWIGRIDPANGNTKYDPKFQGKATITTDTSSNTAYMELSSLRSEDTAVYYCVRGLYTYYFDYWGQGTLVTVSSASTKGPSVFPLAPSSKSTSGGTAALGCLVKDYFPEPVTVSWNSGALTSGVHTFPAVLQSSGLYSLSSVVTVPSSSLGTQTYICNVNHKPSNTKVDKKVEPKSCDKTHTCPPCPAPELLGGPSVFLLPPKPKDTLMISRTPEVTCVVVDVSHEDPEVKFNWYVDGVEVHNAKTKPPEEQYNSTLRVVSLLTVLHQDWLNGKEYKCKVSNAALPAPIAKTISKAKGQPREPQVYTLPPSRDELTKNQVSLTCLVKGFYPSDIAVEWESNGQPENNYKTTPLVLDSDGSFFLYSKLTVDKSRWQQGNVFSCSVMHEALHNHYTQKSLSLSPGK light: not shown"
3,0.4 nM,"Hz033-Mut8 (antibody, human IgG1, kappa, also called Hz033 Mut8 (Y300L K326A E333A P396L)) heavy: EVQLQQSGAEVVKPGASVKLSCKASGFNIKDTFIHWVKQAPGQGLEWIGRIDPANGNTKYDPKFQGKATITTDTSSNTAYMELSSLRSEDTAVYYCVRGLYTYYFDYWGQGTLVTVSSASTKGPSVFPLAPSSKSTSGGTAALGCLVKDYFPEPVTVSWNSGALTSGVHTFPAVLQSSGLYSLSSVVTVPSSSLGTQTYICNVNHKPSNTKVDKKVEPKSCDKTHTCPPCPAPELLGGPSVFLFPPKPKDTLMISRTPEVTCVVVDVSHEDPEVKFNWYVDGVEVHNAKTKPREEQYNSTLRVVSVLTVLHQDWLNGKEYKCKVSNAALPAPIAKTISKAKGQPREPQVYTLPPSRDELTKNQVSLTCLVKGFYPSDIAVEWESNGQPENNYKTTPLVLDSDGSFFLYSKLTVDKSRWQQGNVFSCSVMHEALHNHYTQKSLSLSPGK light: not shown"
